Test results as given in patent US20060275803A1, “Rat and mouse members of the CRISP family of genes” (Wyeth, priority 2005, published 2006).

How the values were obtained:
rCRISPA (rCRISP1) = target: T1, rCRISPA (rCRISP1) (Rattus norvegicus, UniProt P12020); assay: Protease activity screen: cleavage of substrate peptides by native rCRISPA (+DANA protocol), measured by fluorescence; format: biochemical; details: 5 μM substrate peptide, 1 μg enzyme, 100 mM NaCl, 25 mM Tris-Cl, pH 7.5; fluorescence at ten minute intervals for 130 minutes; FIG. 13
T1 construct: Native rCRISPA (rCRISP1) protein, purified with DANA present; from tissue; host or cells: rat epididymis
T1 sequence (P12020 20-246): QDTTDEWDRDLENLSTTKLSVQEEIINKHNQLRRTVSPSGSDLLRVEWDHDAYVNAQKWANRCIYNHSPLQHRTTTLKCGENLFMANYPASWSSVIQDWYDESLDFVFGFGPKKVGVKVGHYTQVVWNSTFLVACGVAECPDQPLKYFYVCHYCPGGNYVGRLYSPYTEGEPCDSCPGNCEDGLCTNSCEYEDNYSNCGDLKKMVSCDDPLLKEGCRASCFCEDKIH
Description: FIG. 13 is a graph showing rCRISPA (rCRISP1) protease activity (assay conditions: 5 μM substrate peptide, 1 μg enzyme, 100 mM NaCl, 25 mM Tris-Cl, pH 7.5). A. Cleaved peptides A04 (RGARARLG), N08 (RKRRAPLA), N12 (AKRAASQI), N17 (RKRRAVLT), B22 (APQRFGKK), B17 (RQRYGKRS), B23 (RVKRYRQS), H03 (RNKRAVQG). B. Cleaved peptides B20 (PQRFGRNT), C16 (RVLGLKAH), J21 (LRNRAQSG), H07 (RVKRQVRS), H11 (RRLLRAIP), N05 (RARRELAP), H01 (RKKRSTKK), O22 (GGVRGPRV), O16 (AATRRQAV), O23 (KNVAMQKG), G24 (RRKRSTRE), A09 (RMRRYADA), M02 (EKQRIIGG), H17 (NGLRADPM). C. Uncleaved peptides L16 (KTPRWGG), N10 (FYRADQPR), B11 (AAGVAPLS), J03 (PQLHSTGG), C01 (GPQGLLGA), K11 (VIPRSGGS), M07 (GLQRALEI), A01 (WQGGRRKF), H02 (RAKRSVHF), A10 (SAARPAPP), M16 (RSRREADL), A05 (SYRKVLGQ), M18 (VHRDMAAR), C23 (RDAQAHPG), M09 (GSQHIRAE), E19 (RLGREGVQ), D06 (ALAEAMKK).
Native rCRISPA (rCRISP1) protein, purified with DANA present (see Example 4), was screened for the ability to cleave 360 unique peptides using the commercially available peptide substrate set (catalog # PrSS-360-75, JPT Peptide Technologies, Springfield, Va.). […] The substrate peptides cleaved by rCRISPA in this assay are represented by blue and green traces noted in FIG. 13. Peptides that were not cleaved by rCRISPA are also noted in FIG. 13.

[1] = target: T2, substrate peptide A01 (WQGGRRKF) (not fully specified)
T2 chain: WQGGRRKF

[2] = target: T3, substrate peptide A04 (RGARARLG) (not fully specified)
T3 chain: RGARARLG

[3] = target: T4, substrate peptide A05 (SYRKVLGQ) (not fully specified)
T4 chain: SYRKVLGQ

[4] = target: T5, substrate peptide A09 (RMRRYADA) (not fully specified)
T5 chain: RMRRYADA

[5] = target: T6, substrate peptide A10 (SAARPAPP) (not fully specified)
T6 chain: SAARPAPP

[6] = target: T7, substrate peptide B11 (AAGVAPLS) (not fully specified)
T7 chain: AAGVAPLS

[7] = target: T8, substrate peptide B17 (RQRYGKRS) (not fully specified)
T8 chain: RQRYGKRS

[8] = target: T9, substrate peptide B20 (PQRFGRNT) (not fully specified)
T9 chain: PQRFGRNT

[9] = target: T10, substrate peptide B22 (APQRFGKK) (not fully specified)
T10 chain: APQRFGKK

[10] = target: T11, substrate peptide B23 (RVKRYRQS) (not fully specified)
T11 chain: RVKRYRQS

[11] = target: T12, substrate peptide C01 (GPQGLLGA) (not fully specified)
T12 chain: GPQGLLGA

[12] = target: T13, substrate peptide C16 (RVLGLKAH) (not fully specified)
T13 chain: RVLGLKAH

[13] = target: T14, substrate peptide C23 (RDAQAHPG) (not fully specified)
T14 chain: RDAQAHPG

[14] = target: T15, substrate peptide D06 (ALAEAMKK) (not fully specified)
T15 chain: ALAEAMKK

[15] = target: T16, substrate peptide E19 (RLGREGVQ) (not fully specified)
T16 chain: RLGREGVQ

[16] = target: T17, substrate peptide G24 (RRKRSTRE) (not fully specified)
T17 chain: RRKRSTRE

[17] = target: T18, substrate peptide H01 (RKKRSTKK) (not fully specified)
T18 chain: RKKRSTKK

[18] = target: T19, substrate peptide H02 (RAKRSVHF) (not fully specified)
T19 chain: RAKRSVHF

[19] = target: T20, substrate peptide H03 (RNKRAVQG) (not fully specified)
T20 chain: RNKRAVQG

[20] = target: T21, substrate peptide H07 (RVKRQVRS) (not fully specified)
T21 chain: RVKRQVRS

[21] = target: T22, substrate peptide H11 (RRLLRAIP) (not fully specified)
T22 chain: RRLLRAIP

[22] = target: T23, substrate peptide H17 (NGLRADPM) (not fully specified)
T23 chain: NGLRADPM

[23] = target: T24, substrate peptide J03 (PQLHSTGG) (not fully specified)
T24 chain: PQLHSTGG

[24] = target: T25, substrate peptide J21 (LRNRAQSG) (not fully specified)
T25 chain: LRNRAQSG

[25] = target: T26, substrate peptide K11 (VIPRSGGS) (not fully specified)
T26 chain: VIPRSGGS

[26] = target: T27, substrate peptide L16 (KTPRWGG) (not fully specified)
T27 chain: KTPRWGG

[27] = target: T28, substrate peptide M02 (EKQRIIGG) (not fully specified)
T28 chain: EKQRIIGG

[28] = target: T29, substrate peptide M07 (GLQRALEI) (not fully specified)
T29 chain: GLQRALEI

[29] = target: T30, substrate peptide M09 (GSQHIRAE) (not fully specified)
T30 chain: GSQHIRAE

[30] = target: T31, substrate peptide M16 (RSRREADL) (not fully specified)
T31 chain: RSRREADL

[31] = target: T32, substrate peptide M18 (VHRDMAAR) (not fully specified)
T32 chain: VHRDMAAR

[32] = target: T33, substrate peptide N05 (RARRELAP) (not fully specified)
T33 chain: RARRELAP

[33] = target: T34, substrate peptide N08 (RKRRAPLA) (not fully specified)
T34 chain: RKRRAPLA

[34] = target: T35, substrate peptide N10 (FYRADQPR) (not fully specified)
T35 chain: FYRADQPR

[35] = target: T36, substrate peptide N12 (AKRAASQI) (not fully specified)
T36 chain: AKRAASQI

[36] = target: T37, substrate peptide N17 (RKRRAVLT) (not fully specified)
T37 chain: RKRRAVLT

[37] = target: T38, substrate peptide O16 (AATRRQAV) (not fully specified)
T38 chain: AATRRQAV

[38] = target: T39, substrate peptide O22 (GGVRGPRV) (not fully specified)
T39 chain: GGVRGPRV

[39] = target: T40, substrate peptide O23 (KNVAMQKG) (not fully specified)
T40 chain: KNVAMQKG

substrate peptide = assay: Protease activity of rCRISPA purified with or without the sialidase inhibitor DANA; format: biochemical, rat
Text: The conservation of protease activity between CRISPA and CRISPC is predicted from both the primary amino acid sequence of the PR-1 domain and the overall domain structure conserved among Tex31 and all mammalian CRISPs. The PR-1 domain of Tex31 is hypothesized to contain a basic substrate recognition site with the predicted catalytic residues His130 and Glu115. The mammalian CRISPs have these residues conserved in the PR-1 domain. […] A sialylated glycan on rCRISPA may be influencing the protein's native confirmation and ability to recognize, bind, or cleave its substrate. If rat CRISPC is glycosylated and sialylated, the glycan may also be involved in the protein's confirmation and ability to recognize, bind, or cleave its substrate.
A protocol for the purification of rCRISPA (rCRISP1) from the epididymis was published in 1997 (Hall J. C. & Tubbs C. E., Prep. Biochem. Biotechnol. 27:239-51 (1997), incorporated herein by reference). Applicants have modified this protocol to include the following amounts of 2,3-dehydro-2-deoxy-N-acetyineuraminic acid (DANA) as an inhibitor of sialidase activity in each of the following buffers:
Protease activity was determined by measuring fluorescence (as per the manufacturer's protocol) at ten minute intervals for 130 minutes in the following assay conditions: […] substrate peptide, […] rCRISPA, 100 mM NaCl, 25 mM Tris-Cl, pH 7.5. […]

In the case of “RRKRSTRE [G24, substrate peptide of the commercial peptide substrate set PrSS-360-75, JPT Peptide Technologies]”, the “cleavage of substrate peptide by rCRISPA (rCRISP1) protease activity” value (rCRISPA (rCRISP1)) is reported as “Cleaved”.

“GPQGLLGA [C01, substrate peptide of the commercial peptide substrate set PrSS-360-75, JPT Peptide Technologies]” was tested, and the “cleavage of substrate peptide by rCRISPA (rCRISP1) protease activity” value (rCRISPA (rCRISP1)) was “Uncleaved”.

B1: native rCRISPA (rCRISP1) purified from epididymis in the presence of DANA (protein)
chain: T1 sequence (P12020 20-246)
For B1, the “protease activity (fluorescence of substrate peptide)” value [1] was “Uncleaved peptides A01 (WQGGRRKF)”, the “protease activity (fluorescence of substrate peptide)” value [2] was “Cleaved peptides A04 (RGARARLG)” and the “protease activity (fluorescence of substrate peptide)” value [3] was “Uncleaved peptides A05 (SYRKVLGQ)”. For the same molecule, the “protease activity (fluorescence of substrate peptide)” value [4] was “Cleaved peptides A09 (RMRRYADA)”, the “protease activity (fluorescence of substrate peptide)” value [5] was “Uncleaved peptides A10 (SAARPAPP)” and the “protease activity (fluorescence of substrate peptide)” value [6] was “Uncleaved peptides B11 (AAGVAPLS)”. The “protease activity (fluorescence of substrate peptide)” value [7] was “Cleaved peptides B17 (RQRYGKRS)”, the “protease activity (fluorescence of substrate peptide)” value [8] was “Cleaved peptides B20 (PQRFGRNT)” and the “protease activity (fluorescence of substrate peptide)” value [9] was “Cleaved peptides B22 (APQRFGKK)”. The “protease activity (fluorescence of substrate peptide)” value [10] was “Cleaved peptides B23 (RVKRYRQS)”, the “protease activity (fluorescence of substrate peptide)” value [11] was “Uncleaved peptides C01 (GPQGLLGA)” and the “protease activity (fluorescence of substrate peptide)” value [12] was “Cleaved peptides C16 (RVLGLKAH)”. For the same molecule, the “protease activity (fluorescence of substrate peptide)” value [13] was “Uncleaved peptides C23 (RDAQAHPG)”, the “protease activity (fluorescence of substrate peptide)” value [14] was “Uncleaved peptides D06 (ALAEAMKK)” and the “protease activity (fluorescence of substrate peptide)” value [15] was “Uncleaved peptides E19 (RLGREGVQ)”. The “protease activity (fluorescence of substrate peptide)” value [16] was “Cleaved peptides G24 (RRKRSTRE)”, the “protease activity (fluorescence of substrate peptide)” value [17] was “Cleaved peptides H01 (RKKRSTKK)” and the “protease activity (fluorescence of substrate peptide)” value [18] was “Uncleaved peptides H02 (RAKRSVHF)”. The “protease activity (fluorescence of substrate peptide)” value [19] was “Cleaved peptides H03 (RNKRAVQG)”, the “protease activity (fluorescence of substrate peptide)” value [20] was “Cleaved peptides H07 (RVKRQVRS)” and the “protease activity (fluorescence of substrate peptide)” value [21] was “Cleaved peptides H11 (RRLLRAIP)”. The “protease activity (fluorescence of substrate peptide)” value [22] was “Cleaved peptides H17 (NGLRADPM)”, the “protease activity (fluorescence of substrate peptide)” value [23] was “Uncleaved peptides J03 (PQLHSTGG)” and the “protease activity (fluorescence of substrate peptide)” value [24] was “Cleaved peptides J21 (LRNRAQSG)”. For the same molecule, the “protease activity (fluorescence of substrate peptide)” value [25] was “Uncleaved peptides K11 (VIPRSGGS)”, the “protease activity (fluorescence of substrate peptide)” value [26] was “Uncleaved peptides L16 (KTPRWGG)” and the “protease activity (fluorescence of substrate peptide)” value [27] was “Cleaved peptides M02 (EKQRIIGG)”. For the same molecule, the “protease activity (fluorescence of substrate peptide)” value [28] was “Uncleaved peptides M07 (GLQRALEI)”, the “protease activity (fluorescence of substrate peptide)” value [29] was “Uncleaved peptides M09 (GSQHIRAE)” and the “protease activity (fluorescence of substrate peptide)” value [30] was “Uncleaved peptides M16 (RSRREADL)”. The “protease activity (fluorescence of substrate peptide)” value [31] was “Uncleaved peptides M18 (VHRDMAAR)”, the “protease activity (fluorescence of substrate peptide)” value [32] was “Cleaved peptides N05 (RARRELAP)” and the “protease activity (fluorescence of substrate peptide)” value [33] was “Cleaved peptides N08 (RKRRAPLA)”. The “protease activity (fluorescence of substrate peptide)” value [34] was “Uncleaved peptides N10 (FYRADQPR)”, the “protease activity (fluorescence of substrate peptide)” value [35] was “Cleaved peptides N12 (AKRAASQI)” and the “protease activity (fluorescence of substrate peptide)” value [36] was “Cleaved peptides N17 (RKRRAVLT)”. The “protease activity (fluorescence of substrate peptide)” value [37] was “Cleaved peptides O16 (AATRRQAV)”, the “protease activity (fluorescence of substrate peptide)” value [38] was “Cleaved peptides O22 (GGVRGPRV)” and the “protease activity (fluorescence of substrate peptide)” value [39] was “Cleaved peptides O23 (KNVAMQKG)”. The “protease activity of rCRISPA” value (substrate peptide; purified using known procedures without DANA present) was “lacking protease activity” and the “protease activity of rCRISPA” value (substrate peptide; purified with DANA present) was “with protease activity”.
